Test results as given in publication PMC7387707, “An (R)-Selective Transaminase From Thermomyces stellatus: Stabilizing the Tetrameric Form” (Frontiers in Bioengineering and Biotechnology, 2020).

How the values were obtained:
[1] = molecular target: T1, TsRTA (Microascus stellatus, UniProt Z9EHZ8S8K6); test: X-ray structure, […] Å; type: binding; settings: covalent (imine with K178); active site
T1 construct: codon-optimised synthetic gene in pCH93b (pET22b(+)-derived, TEV site added), E. coli BL21 STAR (DE3), Ni-IMAC, C-terminal His-tag; structure residues 1-319 seen, 320-334 plus tag disordered
T1 sequence (Z9EHZ8S8K6 10-343): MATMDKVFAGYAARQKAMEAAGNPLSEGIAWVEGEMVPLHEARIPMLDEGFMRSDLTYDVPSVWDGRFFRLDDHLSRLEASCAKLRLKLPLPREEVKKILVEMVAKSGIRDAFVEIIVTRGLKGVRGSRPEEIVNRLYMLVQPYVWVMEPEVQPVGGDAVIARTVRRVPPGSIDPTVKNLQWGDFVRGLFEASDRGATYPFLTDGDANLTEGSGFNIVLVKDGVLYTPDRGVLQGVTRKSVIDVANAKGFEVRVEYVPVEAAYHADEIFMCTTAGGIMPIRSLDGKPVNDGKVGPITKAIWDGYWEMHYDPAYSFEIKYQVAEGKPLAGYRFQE

[2] = molecular target: T2, AtRTA (Aspergillus terreus, UniProt Q0C8G1); test: acetophenone formation, plate reader; substrate-inhibition fit; type: biochemical; settings: 30 °C, pH 8
T2 construct: gene ATEG_10023; synthetic gene (Johnson Matthey) in pCH93b (pET22b(+)-derived, TEV site added), E. coli BL21 STAR (DE3), Ni-IMAC
Excerpt: (§1) acetophenone formation, plate reader; substrate-inhibition fit on AtRTA

[3] = molecular target: T1, TsRTA; test: as above; type: biochemical; settings: 30 °C, pH 8
Excerpt: (§2) acetophenone formation, plate reader; substrate-inhibition fit on TsRTA

[4] = molecular target: T3, TsRTA (Microascus stellatus, UniProt Z9EHZ8S8K6, G205C); test: as above; type: biochemical; settings: 10 mM pyruvate, 1% DMSO, 30 °C, pH 8
T3 construct: codon-optimised synthetic gene in pCH93b (pET22b(+)-derived, TEV site added), E. coli BL21 STAR (DE3), Ni-IMAC, C-terminal His-tag; structure residues 1-319 seen, 320-334 plus tag disordered
T3 sequence (Z9EHZ8S8K6 10-343 G205C): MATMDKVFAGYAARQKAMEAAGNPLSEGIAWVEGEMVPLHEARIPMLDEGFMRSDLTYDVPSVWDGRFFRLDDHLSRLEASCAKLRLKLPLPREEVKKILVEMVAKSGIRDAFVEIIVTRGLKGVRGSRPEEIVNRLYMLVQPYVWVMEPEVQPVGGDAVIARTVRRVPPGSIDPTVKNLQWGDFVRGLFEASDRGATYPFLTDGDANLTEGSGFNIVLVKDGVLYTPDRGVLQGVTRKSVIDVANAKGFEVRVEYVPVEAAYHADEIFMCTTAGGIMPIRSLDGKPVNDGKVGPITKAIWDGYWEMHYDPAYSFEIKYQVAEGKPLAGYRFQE
Excerpt: as §2

[5] = molecular target: (R)-selective transaminase from Thermomyces stellatus (TsRTA), wild type (Thermomyces stellatus); test: SEC; Superdex 200 10/300 GL; 50 mM potassium phosphate, 100 mM NaCl, 0.1 mM PLP, pH 8; ca 2 mg/mL protein; injected directly after preparation or after incubation (ambient temperature; or 10 mM β-mercaptoethanol at 4°C for 2 days, dialysis, overnight aeration); shares of tetramer, dimer and monomer; 0-1,200 mM NaCl had no effect on the tetramer
[6] = system: C[C@@H](N)c1ccccc1; test: acetophenone formation, plate reader; substrate-inhibition fit; type: biochemical, Aspergillus terreus; settings: 10 mM pyruvate, 1% DMSO, 30 °C, pH 8
Excerpt: as §1

[7] = system: CC(=O)C(=O)O; test: as above; type: biochemical, Aspergillus terreus; settings: 2.5 mM RMBA, 0.25% DMSO, 30 °C, pH 8
Excerpt: as §1

[8] = system: Q0C8G1; settings: SEC
[9] = molecular target: AtRTA_G207C (Aspergillus terreus) (UniProt Q0C8G1)
[10] = molecular target: AtRTA_G207C (Aspergillus terreus) (UniProt Q0C8G1); test: SEC
[11] = system: CC(=O)C(=O)O; test: acetophenone formation, plate reader; substrate-inhibition fit; type: biochemical, Microascus stellatus; settings: 2.5 mM RMBA, 0.25% DMSO, 30 °C, pH 8
Excerpt: as §2

[12] = system: C[C@@H](N)c1ccccc1; test: as above; type: biochemical, Microascus stellatus; settings: 10 mM pyruvate, 1% DMSO, 30 °C, pH 8
Excerpt: as §2

[13] = system: CC(=O)C(=O)O; test: purified protein; settings: 2.5 mM RMBA, 0.25% DMSO, 30 °C, pH 8
[14] = system: C[C@@H](N)c1ccccc1; test: purified protein; settings: 10 mM pyruvate, 1% DMSO, 30 °C, pH 8
[15] = SEC; Superdex 200 10/300 GL; 50 mM potassium phosphate, 100 mM NaCl, 0.1 mM PLP, pH 8; ca 2 mg/mL protein; injected directly after preparation or after incubation (ambient temperature; or 10 mM β-mercaptoethanol at 4°C for 2 days, dialysis, overnight aeration); shares of tetramer, dimer and …
[16] = molecular target: TsRTA_G205C (Thermomyces stellatus); test: SEC; Superdex 200 10/300 GL; 50 mM potassium phosphate, 100 mM NaCl, 0.1 mM PLP, pH 8; ca 2 mg/mL protein; injected directly after preparation or after incubation (ambient temperature; or 10 mM β-mercaptoethanol at 4°C for 2 days, dialysis, overnight aeration); shares of tetramer, dimer and monomer; 0-1,200 mM NaCl had no effect on the tetramer
[17] = molecular target: the molecule itself; test: as above

Question: With `Cc1ncc(COP(=O)(O)O)c(C=O)c1O` [PLP] as the molecule, how does the “X-ray structure, 2.2 Å” value [1] read?
Answer: Its value is “The active site pocket houses a single PLP molecule, covalently bound to each TsRTA chain”.

Question: For `CC(=O)C(=O)O` [Pyruvate], which “Ki” value ([2]; 2.5 mM RMBA, 0.25% DMSO) is on record?
Answer: The value was 52 ± 4 mM.

Question: And the “Ki” value ([3]; 2.5 mM RMBA, 0.25% DMSO)?
Answer: The value was 39 ± 5 mM.

Question: Which “Ki” value ([2]; 10 mM pyruvate, 1% DMSO) does the source give for `C[C@@H](N)c1ccccc1` [RMBA] here?
Answer: Its value is 19 ± 1 mM.

Question: What about the “Ki” value ([3]; 10 mM pyruvate, 1% DMSO) of the same molecule?
Answer: The value was 15 ± 1 mM.

Question: What about the “Ki” value [4] of the same molecule?
Answer: The value was 20 ± 2 mM.

Question: Which percent dimer [5] does the source give for “(R)-selective transaminase from Thermomyces stellatus (TsRTA), wild type (enzyme)” here?
Answer: The percent dimer was 10%.

Question: And the percent tetramer [5]?
Answer: Its percent tetramer is 90%.

Question: What about the stoichiometry N [5] of the same molecule?
Answer: Its stoichiometry N is 4.

Question: For AtRTA (Aspergillus terreus NIH2624), which Km [6] is on record?
Answer: Its Km is 170 ± 10 µM.

Question: And the kcat [6]?
Answer: Its kcat is 2.24 ± 0.04 s⁻¹.

Question: And the kcat/Km [6]?
Answer: The kcat/Km was 13300 ± 500 M⁻¹ s⁻¹.

Question: What does the source list for “AtRTA (Aspergillus terreus NIH2624; G207C)”?
Answer: Km [7]: 190 ± 10 µM; kcat [7]: 1.71 ± 0.03 s⁻¹; kcat/Km [7]: 9200 ± 500 M⁻¹ s⁻¹; Km [6]: 300 ± 20 µM; kcat [6]: 1.96 ± 0.05 s⁻¹; kcat/Km [6]: 6400 ± 300 M⁻¹ s⁻¹

Question: For AtRTA_G207C, which “percent tetramer (sample with a lower proportion of tetramer used for the thermostability assay)” value [8] is on record?
Answer: Its value is “AtRTA_G207C: 55% tetramer”.

Question: For “AtRTA_G207C (from UniProt Q0C8G1 1-325) (enzyme)”, which increase in enzyme activity after β-mercaptoethanol pre-treatment [9] is on record?
Answer: Its increase in enzyme activity after β-mercaptoethanol pre-treatment is 65%.

Question: What about the percent dimer (after β-mercaptoethanol, dialysis and aeration) [10] of the same molecule?
Answer: The percent dimer (after β-mercaptoethanol, dialysis and aeration) was 5%.

Question: What about the percent dimer (immediately following purification) [10] of the same molecule?
Answer: The percent dimer (immediately following purification) was 19%.

Question: What about the percent dimer and tetramer (after β-mercaptoethanol pre-treatment) [10] of the same molecule?
Answer: The percent dimer and tetramer (after β-mercaptoethanol pre-treatment) was 94%.

Question: What about the percent dimer and tetramer (before β-mercaptoethanol pre-treatment) [10] of the same molecule?
Answer: The percent dimer and tetramer (before β-mercaptoethanol pre-treatment) was 57%.

Question: And the percent monomer (after β-mercaptoethanol, dialysis and aeration) [10]?
Answer: The percent monomer (after β-mercaptoethanol, dialysis and aeration) was 6%.

Question: What about the percent monomer (immediately following purification) [10] of the same molecule?
Answer: Its percent monomer (immediately following purification) is 52%.

Question: And the percent tetramer (after β-mercaptoethanol, dialysis and aeration) [10]?
Answer: Its percent tetramer (after β-mercaptoethanol, dialysis and aeration) is 89%.

Question: What about the percent tetramer (immediately following purification) [10] of the same molecule?
Answer: Its percent tetramer (immediately following purification) is 28%.

Question: And the stoichiometry N [10]?
Answer: Its stoichiometry N is 4.

Question: With TsRTA (Microascus stellatus) as the molecule, how does the Km [11] read?
Answer: The Km was 570 ± 30 µM.

Question: What about the kcat [11] of the same molecule?
Answer: Its kcat is 2.21 ± 0.04 s⁻¹.

Question: And the kcat/Km [11]?
Answer: Its kcat/Km is 3900 ± 100 M⁻¹ s⁻¹.

Question: What about the Km [12] of the same molecule?
Answer: Its Km is 130 ± 10 µM.

Question: What about the kcat [12] of the same molecule?
Answer: Its kcat is 1.82 ± 0.03 s⁻¹.

Question: What about the kcat/Km [12] of the same molecule?
Answer: The kcat/Km was 13800 ± 600 M⁻¹ s⁻¹.

Question: For TsRTA (Microascus stellatus; G205C), which Km [13] is on record?
Answer: The Km was 420 ± 10 µM.

Question: What about the kcat [13] of the same molecule?
Answer: The kcat was 1.33 ± 0.02 s⁻¹.

Question: What about the kcat/Km [13] of the same molecule?
Answer: The kcat/Km was 3200 ± 100 M⁻¹ s⁻¹.

Question: What about the Km [14] of the same molecule?
Answer: Its Km is 120 ± 10 µM.

Question: What about the kcat [14] of the same molecule?
Answer: Its kcat is 1.35 ± 0.03 s⁻¹.

Question: What about the kcat/Km [14] of the same molecule?
Answer: Its kcat/Km is 11000 ± 600 M⁻¹ s⁻¹.

Question: Which “percent tetramer (sample with a lower proportion of tetramer used for the thermostability assay)” value [15] does the source give for TsRTA_G205C here?
Answer: The value was “TsRTA_G205C: 75% tetramer”.

Question: What does the source list for TsRTA_G205C (enzyme)?
Answer: percent dimer (after β-mercaptoethanol, dialysis and aeration) [16]: 11%; percent dimer (immediately following purification) [16]: 42%; percent monomer (immediately following purification) [16]: 2%; percent tetramer (after β-mercaptoethanol, dialysis and aeration) [16]: 89%; percent tetramer (immediately following purification) [16]: 55%; stoichiometry N [16]: 4

B1: (R)-selective transaminase from Aspergillus terreus (AtRTA), wild type (enzyme)
chain: MASMDKVFAGYAARQAILESTETTNPFAKGIAWVEGELVPLAEARIPLLDQGFMHSDLTYDVPSVWDGRFFRLDDHITRLEASCTKLRLRLPLPRDQVKQILVEMVAKSGIRDAFVELIVTRGLKGVRGTRPEDIVNNLYMFVQPYVWVMEPDMQRVGGSAVVARTVRRVPPGAIDPTVKNLQWGDLVRGMFEAADRGATYPFLTDGDAHLTEGSGFNIVLVKDGVLYTPDRGVLQGVTRKSVINAAEAFGIEVRVEFVPVELAYRCDEIFMCTTAGGIMPITTLDGMPVNGGQIGPITKKIWDGYWAMHYDAAYSFEIDYNERN
notes: the forward primer holds the ATG; Same vector as TsRTA, whose His-tag is C-terminal; also called omega transaminase from Aspergillus terreus; source: E. coli BL21 STAR (DE3), purified (IMAC)
Question: Which “stoichiometry N” value [17] does the source give for B1 here?
Answer: The value was 4.
